Measurements: paper PMC8039031

Target: CREPT (RPRD1B) (UniProt Q9NQG5)
Test: co-IP
Settings: reference: wild type; sites Y705

binding against the reference: lost
Substance: STAT3 (from UniProt P40763) Y705F
